Results taken from publication PMC11018352, “Guanidine production by plant homoarginine-6-hydroxylases” (eLife, 2024).

Assays:
At3g50210 (2-ODD-C23.1) = target: T1, At3g50210 (2-ODD-C23.1) (Arabidopsis thaliana, UniProt Q84MB6); experiment: inhibition of homoarginine-dependent O2 consumption; type: biochemical; details: 0.5 mM 2-oxoglutarate, pH 7.2, 30 °C
T1 construct: gene 2ODDC23.1
T1 sequence (Q84MB6 1-332): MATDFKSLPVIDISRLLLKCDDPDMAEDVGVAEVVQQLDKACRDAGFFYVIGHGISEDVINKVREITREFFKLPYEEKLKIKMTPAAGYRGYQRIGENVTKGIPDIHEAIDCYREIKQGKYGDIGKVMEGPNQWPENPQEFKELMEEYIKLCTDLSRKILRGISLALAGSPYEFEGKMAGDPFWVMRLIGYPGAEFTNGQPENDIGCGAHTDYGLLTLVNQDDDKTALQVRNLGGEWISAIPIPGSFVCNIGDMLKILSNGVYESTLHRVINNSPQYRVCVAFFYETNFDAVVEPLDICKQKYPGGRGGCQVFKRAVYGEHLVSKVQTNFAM

[1] = target: T2, Din11s (2-ODD-C23.2, short variant of Din11) (Arabidopsis thaliana, UniProt Q8H113); experiment: as above; type: biochemical; details: competitive versus homoarginine; 1 mM canavanine, 0.5 mM 2-oxoglutarate, pH 7.2, 30 °C
T2 construct: gene 2ODDC23.2
T2 sequence (Q8H113 26-357): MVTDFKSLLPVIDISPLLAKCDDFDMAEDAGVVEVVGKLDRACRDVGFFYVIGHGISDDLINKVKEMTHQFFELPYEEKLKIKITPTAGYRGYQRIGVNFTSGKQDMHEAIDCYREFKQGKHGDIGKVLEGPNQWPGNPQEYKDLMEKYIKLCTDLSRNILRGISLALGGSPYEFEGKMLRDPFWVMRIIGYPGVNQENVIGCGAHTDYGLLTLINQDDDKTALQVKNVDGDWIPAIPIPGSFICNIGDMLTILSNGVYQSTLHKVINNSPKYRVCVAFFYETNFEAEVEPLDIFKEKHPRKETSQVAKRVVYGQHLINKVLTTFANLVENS

[2] = target: T3, Gm2-ODD-C23 (soybean 2-ODD-C23) (Glycine max, UniProt A0A0R4J5R0); experiment: guanidine production in expressing E. coli culture, LC-MS; type: cell-based; details: 1 mM homoarginine in medium, 18 °C overnight
T3 construct: gene 2ODDC23
T3 sequence (A0A0R4J5R0 1-331): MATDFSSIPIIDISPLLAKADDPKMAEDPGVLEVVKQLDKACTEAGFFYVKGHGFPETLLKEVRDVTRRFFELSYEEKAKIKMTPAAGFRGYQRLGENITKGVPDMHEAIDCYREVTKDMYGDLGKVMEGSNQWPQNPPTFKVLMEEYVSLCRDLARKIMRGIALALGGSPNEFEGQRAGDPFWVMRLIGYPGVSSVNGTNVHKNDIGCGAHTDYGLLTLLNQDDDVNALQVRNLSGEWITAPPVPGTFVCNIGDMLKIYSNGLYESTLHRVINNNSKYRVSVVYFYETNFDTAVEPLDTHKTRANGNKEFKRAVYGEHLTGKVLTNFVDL

[3] = target: T4, 2-ODD33 (Os2-ODD33, rice 2-ODD-C23 ortholog) (Oryza sativa, UniProt Q6K332); experiment: as above; type: cell-based; details: 1 mM homoarginine in medium, 18 °C overnight
T4 sequence (Q6K332 1-328): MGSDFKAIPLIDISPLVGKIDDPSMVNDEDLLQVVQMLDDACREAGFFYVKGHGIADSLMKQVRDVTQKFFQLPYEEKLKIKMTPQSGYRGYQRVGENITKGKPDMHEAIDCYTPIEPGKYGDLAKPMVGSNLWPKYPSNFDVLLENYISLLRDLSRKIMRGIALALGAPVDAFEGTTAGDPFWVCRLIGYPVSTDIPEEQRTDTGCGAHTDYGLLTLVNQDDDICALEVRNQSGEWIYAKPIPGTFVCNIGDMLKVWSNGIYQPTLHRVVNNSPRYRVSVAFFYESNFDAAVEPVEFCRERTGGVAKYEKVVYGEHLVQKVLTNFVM

[4] = substrate: N=C(N)NCCCC[C@H](N)C(=O)O; experiment: O2 consumption, Clark-type electrode; type: biochemical, Arabidopsis thaliana; details: 0.5 mM 2-oxoglutarate, Fe2+, ascorbate, pH 7.2, 30 °C
[5] = substrate: N=C(N)NCCC[C@H](N)C(=O)O; experiment: O2 consumption, Clark-type electrode; type: biochemical, Arabidopsis thaliana; details: 0.5 mM 2-oxoglutarate, Fe2+, ascorbate, pH 7.2, 30 °C
[6] = substrate: O=C(O)[C@@H]1CCCC=N1; experiment: NADH oxidation, spectrophotometric; type: biochemical, Oryza sativa; details: NADH as electron donor (fixed 1 mM), pH 7.5, 35 °C
[7] = substrate: N[C@@H](CCCC=O)C(=O)O; experiment: NAD+ reduction, spectrophotometric; type: biochemical, Arabidopsis thaliana; details: 1 mM NAD+, pH 7.5, 35 °C, substrate is the AASA/P6C equilibrium mixture
[8] = substrate: NC(=O)c1ccc[n+]([C@@H]2O[C@H](COP(=O)(O)OP(=O)(O)OC[C@H]3O[C@@H](n4cnc5c(N)ncnc54)[C@H](O)[C@@H]3O)[C@@H](O)[C@H]2O)c1; experiment: NAD+ reduction, spectrophotometric; type: biochemical, Arabidopsis thaliana; details: 1 mM AASA/P6C, pH 7.5, 35 °C, varied: cofactor

N=C(N)NCCC[C@H](N)C(=O)O [arginine]
inhibition of homoarginine-dependent O2 consumption (At3g50210 (2-ODD-C23.1); competitive versus homoarginine, 1 mM arginine): we detected a competitive inhibition of Din11s and At3g50210

N=C(N)NOCC[C@H](N)C(=O)O [canavanine]
inhibition of homoarginine-dependent O2 consumption (At3g50210 (2-ODD-C23.1); mixed type versus homoarginine, 1 mM canavanine): the inhibition of At3g50210 was of the mixed type | inhibition of homoarginine-dependent O2 consumption [1]: canavanine showed competitive inhibition of the reaction of Din11s with homoarginine

N=C(N)NCCCC[C@H](N)C(=O)O [homoarginine]
guanidine production in expressing E. coli culture, LC-MS [2]: orthologs from soybean and rice (2-ODD33) mediated homoarginine-dependent guanidine accumulation | guanidine production in expressing E. coli culture, LC-MS [3]: orthologs from soybean and rice (2-ODD33) mediated homoarginine-dependent guanidine accumulation

B1: At3g50210 (2-ODD-C23.1) (Arabidopsis thaliana) (protein)
chain: MATDFKSLPVIDISRLLLKCDDPDMAEDVGVAEVVQQLDKACRDAGFFYVIGHGISEDVINKVREITREFFKLPYEEKLKIKMTPAAGYRGYQRIGENVTKGIPDIHEAIDCYREIKQGKYGDIGKVMEGPNQWPENPQEFKELMEEYIKLCTDLSRKILRGISLALAGSPYEFEGKMAGDPFWVMRLIGYPGAEFTNGQPENDIGCGAHTDYGLLTLVNQDDDKTALQVRNLGGEWISAIPIPGSFVCNIGDMLKILSNGVYESTLHRVINNSPQYRVCVAFFYETNFDAVVEPLDICKQKYPGGRGGCQVFKRAVYGEHLVSKVQTNFAM
Km [4]: 780 ± 150 µM

B2: Din11s (2-ODD-C23.2, short variant of Din11) (Arabidopsis thaliana) (protein)
chain: MVTDFKSLLPVIDISPLLAKCDDFDMAEDAGVVEVVGKLDRACRDVGFFYVIGHGISDDLINKVKEMTHQFFELPYEEKLKIKITPTAGYRGYQRIGVNFTSGKQDMHEAIDCYREFKQGKHGDIGKVLEGPNQWPGNPQEYKDLMEKYIKLCTDLSRNILRGISLALGGSPYEFEGKMLRDPFWVMRIIGYPGVNQENVIGCGAHTDYGLLTLINQDDDKTALQVKNVDGDWIPAIPIPGSFICNIGDMLTILSNGVYQSTLHKVINNSPKYRVCVAFFYETNFEAEVEPLDIFKEKHPRKETSQVAKRVVYGQHLINKVLTTFANLVENS
Km [4]: 1900 ± 300 µM | Km [5]: 6000 ± 5100 µM

B3: At3g49630 (2-ODD-C23.3) (Arabidopsis thaliana) (protein)
chain: MATNFKSLLPVIDISPLVVKCDDANMAEDAGVAEVVGKLDRACRDAGFFYVIGHGISEDFIRKVRVMSHQFFELPYEEKLKIKITPAAGYRGYQRIGLNLTNGKQDMHEAIDCYKEFKQGKHGDIGKVMEGANQWPENPQEYKELMEEYIKLCIDLSRNILRGISLALGGSPYEFEGKMLTDPFWIMRILGYPGVNQENVIGCGAHTDYGLLSLINQDDDKTALQVRDLAGDWIPVIPIPGSFVCNIGDMLKILSNGVYESTLHRVINNSPRYRVCVGFFYETNFDAAVEPLDIFKEKYPGKGTSQVFKRVVYGEHLVHKLQTTFQNLVEHS
notes: b44 prints At3g49620, apparently a slip for At3g49630
Km [4]: 4600 ± 200 µM

B4: OsP5CR (pyrroline-5-carboxylate reductase from rice) (Oryza sativa Japonica Group) (protein)
chain: MAAPPQPVPAPAAASPEVFRLGFIGPGNLAESIARGVAASGVLPATAIRTAPHRRPERAEAFSSIGAHILETNAQVVDDSDVIVISVKPQIVRQVLVELKPLLSEEKLLVSIAAGIKMEDLQGWSGHRRFIRVMPNTPSAVGQAASVMCLGEMATENDENRVRSLFSAIGKVWTAEEKYFDAVTGLSGSGPAYIFLAIEAMADGGVAAGLPRDLALGLASQTVLGAATMVNKTGKHPGQLKDMVTSPAGTTITGIQELEKGAFRGTLINAVVAATKRCRELSQS
notes: recombinant, purified
Km [6]: 173 ± 18 µM

B5: AtALDH7B4 (At1g54100, AASA-DH) (Arabidopsis thaliana) (protein)
chain: MGSANNEYEFLSEIGLTSHNLGSYVAGKWQANGPLVSTLNPANNQPIAQVVEASLEDYEQGLKACEEAAKIWMQVTAPKRGDIVRQIGDALRSKLDYLGRLLSLEMGKILAEGIGEVQEVIDMCDFAVGLSRQLNGSVIPSERPNHMMLEMWNPLGIVGVITAFNFPCAVLGWNACIALVCGNCVVWKGAPTTPLITIAMTKLVAEVLEKNNLPGAIFTAMCGGAEIGEAIAKDTRIPLVSFTGSSRVGSMVQQTVNARSGKTLLELSGNNAIIVMDDADIQLAARSVLFAAVGTAGQRCTTCRRLLLHESVYDKVLEQLLTSYKQVKIGNPLEKGTLLGPLHTPESKKNFEKGIEVIKSQGGKILTGGKAVEGEGNFVEPTIIEISADAAVVKEELFAPVLYVLKFKSFGEAVAINNSVPQGLSSSIFTRNPENIFRWIGPLGSDCGIVNVNIPTNGAEIGGAFGGEKATGGGREAGSDSWKQYMRRSTCTINYGNELPLAQGINFG
Km [7]: 11.9 ± 1.0 µM | Km [8]: 324 ± 17 µM
